Patent publication US7341859B2, “ADH from Rhodococcus erythropolis” (Degussa AG, priority 2002, dated 2008)

Tests used:
[1] = system: aldehyde reductase from Corynebacterium sp.; conditions: phenylacetaldehyde = 100%; cited from earlier work
[2] = system: aldehyde reductase from Corynebacterium sp.; assay: Activity of substrates with aldehyde reductase from Corynebacterium sp. (Itoh et al.); format: biochemical, Corynebacterium sp. ST-10; conditions: Corynebacterium enzyme
Description: When comparing the gene sequence for ADH from R. erythropolis with sequences in the databases, it was shown that RE-ADH has a high degree of homology with an aldehyde reductase from Coyrnebacterium sp. In the publication on aldehyde reductase, a number of biochemical properties of this enzyme are described (Itoh, N., R. Morihama, J. Wang, K. Okada and N. Mizuguchi (1997), Purification and characterisation of phenylacetaldehyde reductase from a styrene-assimilating Corynebacterium strain, ST-10, Appl. Environ. Microbiol. 63: 3783-378). Some of the (aldehyde) substrates described in that publication were therefore also converted using RE-ADH and compared using the relative activities of the reductase. […] Further comparisons of the two enzymes using the published data material are not meaningful because the enzyme from Corynebacterium was tested exclusively with phenylacetaldehyde as substrate, but RE-ADH has hitherto been characterised using p-Cl-acetophenone.
A comparison of RE-ADH with the aldehyde reductase from Corynebacterium sp. with regard to the activity for acetophenone reduction and a few aldehydes. Data on the enzyme from Corynebacterium were taken from the publication by Itoh et al. (see above), data on RE-ADH are our own measurements (homogeneous=very pure homogeneous enzyme). […]

[3] = system: alcohol dehydrogenase from R. erythropolis (RE-ADH, new ADH expr. in E. coli); assay: Relative/specific activity of substrates with the new ADH from R. erythropolis (photometric NADH test); format: biochemical, Rhodococcus erythropolis
Description: In this case, as is normal, the measured activity for one compound is set at 100% and the activity/activities of the other compound(s) is determined in relation thereto. From the relative activities when compared with other substrates, it can then be recognised whether such another substrate is accepted to a greater or lesser extent.
A first purification can be achieved by anion exchange chromatography (MonoQ-Material, Pharmacia) (mobile buffer: 50 mM TEA buffer, pH 7.0; elution with a NaCl gradient of 0-1 M).
For the activity test, the cells were harvested (15 min centrifuging at 14000 rpm, 4° C.) and degraded after resuspension with 100 mM KPi buffer, pH 6.0 (1.5 ml of buffer per 1 g of cells). For the purposes of degradation, the suspension was treated with ultrasound (2×30 sec. power 100%, pulse 50), then the cell broth was centrifuged. The supernatant liquid is the soluble crude extract, the sediment is the insoluble fraction.
For a comparison using relative activities, the activity of the two enzymes was given with respect to phenylacetaldehyde=100%.
In this case, the relative activity is given with respect to the activity measured for acetophenone.

[4] = Specific enzyme activity, standard test with p-Cl-acetophenone and NADH; format: biochemical
Description: For elution, a falling ammonium sulfate gradient (1-0 M) was used; the desired enzyme then eluted at almost 0 M ammonium sulfate. […] The desired protein eluted on application of a falling ammonium sulfate gradient (1-0 M) at about 0.1 M ammonium sulfate. […] The supernatant liquid is the soluble crude extract, the sediment is the insoluble fraction. […] For expression, E. coli BL21 (DE3) was used as host. Recombinant cells were multiplied in the medium LBcam at 37° C. At an OD600 of 0.5, expression was induced with 25 μM IPTG, then the cells were multiplied for 12 h at 30° C. The cells were harvested after centrifuging for 15 min at 5000 rpm, the sediment was resuspended in 100 mM Kpi buffer (1.5 ml per 1 g of cells) and broken down using ultrasound.

[5] = Activity of immobilised RE-ADH (Eupergit, Ni-NTA) with p-Cl-acetophenone, GC; format: biochemical; conditions: for activity of the immobilised enzyme: 30° C.
Description: Eupergit C® and Eupergit C 250L® were used in parallel batches, each being loaded with partially purified RE-ADH (literature reference relating to Eupergit immobilisation: E. Katchalski-Katzir, D. M. Kraemer, J. Mol. Catal. B: Enzym. 2000, 10, 157). The following was used for the test: • 1.5 mM p-Cl-acetophenone (dissolved in 0.1 M Na formate buffer, 0.05 M KPi buffer, pH 6.0) • 0.5 mM NAD • 30 mg immobilisate • 1 U/ml formate dehydrogenase (FDH)
These test materials were incubated at 30° C., a sample (100 μl) was taken from each mix after 0, 5, 10 and 15 min, this was extracted with 100 μl of chloroform and the chloroform phase was analysed for any phenylethanol formed using gas chromatography. The activity of the immobilised enzyme can be calculated from the kinetics of phenylethanol formation and values of 11.8 U/g support for Eupergit C® and 8 U/g of support for Eupergit C 250L® were obtained. With respect to the amount of enzyme used, this corresponded to coupling yields of 1% (Eupergit ®) and 0.8% (Eupergit C 250L®). • b) Immobilising on Ni-NTA
Recombinant E. coli JM105/pRE-ADH5 cells were broken down in an imidazole-containing buffer (50 mM NaH2PO4; 300 mM NaCl; 10 mM imidazole, pH 8.0) and a crude extract was prepared in the way described previously. For immobilisation, 1 ml of enzyme solution (13 U/ml RE-ADH, crude extract from the culture E. coli JM105pRE-ADH5; 8 mg/ml of protein) was added to 300 mg of Ni-NTA support material (Quiagen) and incubated for 10 min at 0° C. (ice bath). After centrifuging the suspension, 3 U/ml could still be detected as residual activity in the supernatant liquid as non-bonded enzyme. The immobilisate was reacted with p-Cl-acetophenone to detect the bonded activity.
For this purpose, the following were used per 1 ml of total volume:
3 mM p-Cl-acetophenone (substrate; dissolved in 100 mM Na formate, 50 mM Kpi buffer pH 6.0)
1 U formate dehydrogenase
The test batch was incubated in the same way as described above (immobilisation on Eupergit®), samples were taken and these were analysed using gas chromatography. […] Taking into account the fact that this test was performed with 30 mg of immobilisate and that 10 U RE-ADH had bonded to 300 mg of support material, 1 U was thus introduced in the test batch with the 30 mg. Since an activity of 0.21 U was reported, an immobilisation yield of 21% was obtained. The enantiomer purity (ee value) of the alcohol formed with the immobilisate was >99%.

[6] = Thermal stability of the ADH (activity after incubation); format: physicochemical
Description: The advantageous aspects and differences mentioned above with regard to improvement in the stability, as compared with previously known alcohol dehydrogenases from R. erythropolis are summarised in Table 5 and in FIG. 4. For better comparison, the relevant enzyme activity measured at 45° C. was set at 100%.
Here, for the very pure new alcohol hydrogenase, high thermal stabilities were produced over a wide temperature range extending up to 65° C. The stability values in this case are […]

[7] = pH optimum for the activity and stability of RE-ADH; format: biochemical; conditions: 4° C. and room temperature, 1 and 2 days, pH range 7.5-8.5, tris-HCl buffer 0.1 M
Description: The pH optimum for RE-ADH is at pH 6.0 for the reduction reaction (measured using p-Cl-acetophenone).

Molecule: CCCCCCCC=O [Caprylic aldehyde]
- relative activity [1]: 1220%
- activity towards caprylic aldehyde as multiple of that with respect to acetophenone (so in the source) [2]: 12 times
- activity towards caprylic aldehyde as multiple of that towards acetophenone (so in the source) ([3]; RE-ADH): about 5 times
- relative activity ([3]; phenylacetaldehyde = 100%): 522%

B1: RE-ADH: alcohol dehydrogenase (ADH, RE-ADH) from Rhodococcus erythropolis, Seq. ID NO: 2, tetrameric; also with C-terminal His-Tag or immobilised (protein, listed as Rhodococcus erythropolis)
chain: MKAIQYTRIGAEPELTEIPKPEPGPGEVLLEVTAAGVCHSDDFIMSLPEEQYTYGLPLTLGHEGAGKVAAVGEGVEGLDIGTNVVVYGPWGCGNCWHCSQGLENYCSRAQELGINPPGLGAPGALAEFMIVDSPRHLVPIGDLDPVKTVPLTDAGLTPYHAIKRSLPKLRGGSYAVVIGTGGLGHVAIQLLRHLSAATVIALDVSADKLELATKVGAHEVVLSDKDAAENVRKITGSQGAALVLDFVGYQPTIDTAMAVAGVGSDVTIVGIGDGQAHAKVGFFQSPYEASVTVPYWGARNELIELIDLAHAGIFDIAVETFSLDNGAEAYRRLAAGTLSGRAVVVPGL
modifications: optional C-terminal His-tag or immobilisation
notes: ID NO: 2, tetrameric; also with C-terminal His-Tag or immobilised
- activity in the crude extract ([4]; crude extract from R. erythropolis): about 2.5 U/mg
- enzyme activity ([4]; hexa-histidine group at the C-terminus, pRE-ADH5 in E. coli JM105): 7 U/mg
- ADH activity in the crude extract ([4]; plasmid pKK223-3, E. coli JM 105, soluble fraction): 6 U/mg
- ADH activity in the crude extract ([4]; plasmid pKK223-3, E. coli JM 105, soluble fraction, listed as ADH according to the invention): about 6 U/mg
- ADH activity in the crude extract ([4]; vector pKA1, E. coli BL21 (DE3), cell-free crude extract): 70 U/mg
- ADH activity in the crude extract ([4]; vector pKA1, E. coli BL21 (DE3), cell-free crude extract, listed as ADH): 70 U/mg
- ADH activity in the crude extract ([4]; vector pKA1, E. coli BL21 (DE3), cell-free crude extract, listed as ADH according to the invention): about 70 U/mg
- enantiomer purity (ee value) of the alcohol formed with the immobilisate ([5]; His-Tag enzyme on Ni-NTA): > 99%
- activity of the immobilisate ([5]; His-Tag enzyme on Ni-NTA, 30 mg immobilisate, 3 mM p-Cl-acetophenone): 0.21 U
- activity of the immobilised enzyme ([5]; immobilised on Eupergit C 250L): 8 U/g of support
- activity of the immobilised enzyme ([5]; immobilised on Eupergit C): 11.8 U/g support
- enzyme activity after incubation ([6]; 10 min at 45° C.): (110 U/ml)
- relative enzyme activity after incubation ([6]; 10 min at 45° C.): 95%
- enzyme activity after incubation ([6]; 10 min at 50° C.): (110 U/ml)
- relative enzyme activity after incubation ([6]; 10 min at 50° C.): 95%
- enzyme activity after incubation ([6]; 10 min at 55° C.): (115 U/ml)
- relative enzyme activity after incubation ([6]; 10 min at 55° C.): 99%
- enzyme activity after incubation ([6]; 10 min at 60° C.): (112 U/ml)
- relative enzyme activity after incubation ([6]; 10 min at 60° C.): 97%
- enzyme activity after incubation ([6]; 10 min at 65° C.): (116 U/ml)
- relative enzyme activity after incubation ([6]; 10 min at 65° C.): 100%
- deactivation on storage [7]: no deactivation
